Data taken from patent US10513713B2, “Modified host cells having tolerance to α-olefins” (priority 2014, dated 2019).

B1: Pseudomonas putida KT2440: heterologous RND efflux pump, AcrB homolog from Pseudomonas putida KT2440 (protein, listed as Pseudomonas putida)
chain: MSKFFIDRPIFAWVIALVIMLVGALSILKLPINQYPSIAPPAIAIAVTYPGASAQTVQDTVVQVIEQQLNGIDNLRYVSSESNSDGSMTITATFEQGTNPDTAQVQVQNKLNLATPLLPQEVQQQGIRVTKAVKNFLLVIGLVSEDGSMTKDDLANYIVSNMQDPISRTAGVGDFQVFGAQYAMRIWLDPAKLNKFQLTPVDVKTAVAAQNVQVSSGQLGGLPALPGTQLNATIIGKTRLQTAEQFESILLKVNKDGSQVRLGDVAQVGLGGENYAVSAQFNGKPASGLAVKLATGANALDTAKALRETIKGLEPFFPPGVKAVFPYDTTPVVTESISGVIHTLIEAVVLVFLVMYLFLQNFRATIITTMTVPVVLLGTFGILAAAGFSINTLTMFAMVLAIGLLVDDAIVVVENVERVMSEEGLPPKEATKRSMEQIQGALVGIALVLSAVLLPMAFFGGSTGVIYRQFSITIVSAMGLSVLVALIFTPALCATMLKPLKKGEHHTAKGGFFGWFNRNFDRSVNGYERSVGAILRNKVPFLLAYALIVVGMIWLFARIPTAFLPEEDQGVLFAQVQTPAGSSAERTQVVVDQMREYLLKDEADTVSSVFTVNGFNFAGRGQSSGMAFIMLKPWDERSKENSVFALAQRAQQHFFTFRDAMVFAFAPPAVLELGNATGFDVFLQDRGGVGHEKLMEARNQFLAKAAQSKILSAVRPNGLNDEPQYQLTIDDERASALGVTIADINNTLSIALGASYVNDFIDRGRVKKVYIQGEPSARMSPEDLQKWYVRNGAGEMVPFSSFAKGEWTYGSPKLSRYNGVEAMEILGAPAPGYSTGEAMAEVERIAGELPSGIGFSWTGMSYEEKLSGSQMPALFALSVLFVFLCLAALYESWSIPIAVVLVVPLGIIGALIATSLRGLSNDVYFLVGLLTTIGLAAKNAILIVEFAKELHEQGRSLYDAAIEACRMRLRPIIMTSLAFILGVVPLTIASGAGAGSQHAIGTGVIGGMISATVLAIFWVPLFFVAVSSLFGSKEPEKDVTPENPRYEAGQ
B2: Marinobacter aqueolei EPL: heterologous RND efflux pump, AcrB homolog from Marinobacter aqueolei EPL (protein, listed as Marinobacter aqueolei)
chain: MPRFFIERPIFAWVVALMLMLGGGLAVKNLAVNQFPDVAPPAIALSVNYPGASAQTVQDTVVQVIEQQLNGLDGLRYISSESNSDGSMTIIATFEQGTDPDIAQVQVQNKLQLANPLLPEEVQRQGIRVSKYKVNFFTVFALTSPDGKYTQGDLADYIVSNIQDPVARTQGVGDFLLFGSQYAMRLWLDPEKLNSYQLTPQDVINSVRAQNVQVSAGQLGGLPTAEGVQLQATVIGKQRMKTAEEFENILLKVNPDGSQVRLADVAEVNLGNENYATTGKYNGAPAAGMALRLATGANQLETAGRVKETLAELERFLPEGVEIVFPYDTTPVVSASIETVAMTLIEAVVLVFLVMFLFLQSWRATIIPTLAVPVVLLATFGVLYAFGFTVNVMTMFAMVLAIGLLVDDAIVVVENVERLMEEEGLSPKEAAKKSMDQISGALLGIGLVISAVFLPMAFFGGSTGVIYRQFSVTIISAMSFSVLVAFIFTPALCATLLKPGDQHVRKGFFGWFNRTFDRSADRYKSGVSYLIKRKGRFMGVYLLLVVAVGFLFKGLPTAFLPDEDQGVMIVMVQLPTNATGERTEAVLAEAGNYLLEEESEVVKSVMSVRGFNFAGRGQNSGILFVDLKPFADRESFAQSVFALAGRSGARFAQIKDAIVFPIVPPAILELGNATGFDLYLKDNGAIGHHALMAATNEFISRANAAPELNMVRHNGLPDEPQYQVIIDDEKARLLQVSIADINATMSAAWGSSYVNDFLHNGRVKKVYVQGKPDSRLAPEDFDKWFVRNAQGEMVPFAAFATGEWVFGSPRLQRYQGLPATQIQGAPANGYSTGDAMAALERIAADLPQGLGLEYTGLSFEEKQAGNQAMMLYLLSILVVFLCLAALYESWSIPFAVIMLVPLGVLGAVLATMARGLSNDVFFQVGMLTTMGLAAKNAILIVEFARQLYEQEGKPLLQATAEAARLRLRPIIMTSLAFIFGVLPMAIASGASSASQHAIGTAVVGGTLAATILAIFFVPLFYVFVVGLTGKRKSADD
B3: Pseudoalteromonas haloplanktis TAC125: heterologous RND efflux pump, AcrB homolog from Pseudoalteromonas haloplanktis TAC125 (protein, listed as Pseudoalteromonas haloplanktis)
chain: MSRYFIDKPIFAWVLAIIVMLAGILAVKSLPIAQYPSIAPPAISITANYPGASAQTLEDSVTQVIEQKMKGLDGLLYMSSTSESNGSATLTLTFNADTDPDIAQVQVQNKLATATPLLPEEVQRQGVVVAKAARNFLLVLAFVSKDGSMTNIDIGDYVASNVQDIVSRVDGVGEAQLFGSQYAMRIWLDPAKLQNFKLTPNDIGAAITAQNAQVSAGQLGGMPAIAGQQLNATITAQSRLQTPEQFENILVKTNSDGSVVRLKDVARVELGGENYGVVARYNGDPAAGIGIKLASGANALDTAEGVKKALEDLKPFFPEGLDVAIPYDTTPFVSLSIEKVVHTLIEAVILVFVVMYLFLQNFRATLIPTIAVPVVLLGTFAILYTFGYSINTLTMFAMVLAIGLLVDDAIVVVENVERLMTEEKLSALDATRKSMDEIKGALVGIAMVLSAVFIPMAFFSGSTGVIYRQFSITIVSAMGLSVLVALILTPALCATLLKPSHVHDKTSFIGRFFSGFNRGFDKTNRGAQGIVGRMISQSKRYLLIYGVLVGGMVYVFSSLPTAFLPDEDQGILFNQVMLPAGSTIEQTLGVVEKVENHYLNDQAEAVGSIFTVTGFSFAGSGQNSAIGFVNLKHWDERQRDDLSVNAVAGKGMGYFSTIKEAFVFAFPPPAIVELGTANGFNMFLQDRVGLGHDELLNARNMLLGMASKSPVLAGVRPNGQEDMPELQLDIDLAKAEALGVTQTDINSTLSTAWGSRYVNDFIDRGRVKKVYMQGEADSRMVPEDLNKWYVRNNNGDMVPFAAFASSHWSYGSPRLERYNGFSAMEIQGSAAPGYSTGQAMDEMERLVKQLPNGIASEWSGISYQERSSGGQAPLLYGLSLLFVFLCLAALYESWSVPFAVMIIVPLGIFGAIMAALIGNLSNDIYLQVGLLTTIGLASKNAILIVEFAIHKMEEGLSLVDAAIAAVKLRLRPVLMTSLAFICGVVPLAIASSAGSGAQNALGISIIGGTLAASTLVVLFVPLFFVLVRKTFSSKSAVATKESE

What follows are molecules tested on E. coli DH1 ΔacrAB (assay: Survival test of heterologous efflux pump library in 1-hexene saturated atmosphere). Settings: FIG. 7.
Assay type: cell-based
Protocol: FIG. 7: Impact of homologous pumps on growth in presence of 1-hexene. Survival test of E. coli DH1 ΔacrAB producing either the AcrAB wild type or AcrAB homologs in a 1-hexene saturated atmosphere was performed. One dilution of cultures (10^6 cells) was spotted on agar plate. […] From left to right and from top to bottom of the picture, are culture of strains producing the pumps A. vinelandii (YP_002797425), A. vinelandii (MexF), A. vinelandii (YP_002801502), P. putida (TtgB), P. putida (NP_745594), P. putida (MexF), P. putida (NP_743067), P. aeruginosa (MexB), P. aeruginosa (NP_250708), P. aeruginosa (MexF), P. aeruginosa (NP_253065), P. fluorescens (YP_258460), P. fluorescens (YP_260376), P. fluorescens (YP_258159), P. fluorescens (YP_258289), R. metallidurans (YP_586997), R. melallidurans (YP_583276), R. metallidurans (YP_583852), M. aqueolei (YP_960752), M. aqueolei (YP_957870), P. syringae (YP_276144), P. syringae (YP_275089), P. syringae (MdtB), P. syringae (YP_273025), P. syringae (YP_273463), P. syringae (YP_272632), G. metallireducens (YP_383777), G. metallireducens (YP_384620), G. metallireducens (YP_385464), G. metallireducens (YP_384608), G. metallireducens (YP_386066), B. pertussis (NP_880739), D. vulgaris (YP_009662), S. putrefaciens (YP_001181626), A. borkumensis (YP_692684), B. borkumensis (YP_694242), P. haloplanktis (AcrB), S. halifaxensis (YP_001672433), S. halifaxensis (YP_001673423), S. halifaxensis (YP_001674385), E. coli (AcrEF), E. coli (AcrAB), E. coli (AcrD).
An existing library of heterologous efflux pumps in E. coli (Dunlop et al. 2011) was used to test if another pump may provide better tolerance to 1-hexene than the native E. coli AcrAB-TolC system. Using the agar plate-based method, this strain library constructed in a DH1 ΔacrAB background was tested and the survival compared in presence of 1-hexene relative to the strain expressing an equivalent plasmid-borne copy of the native acrAB genes.
To test the heterologous efflux pump library, the same method was used. […]
For B1, the “tolerance to 1-hexene relative to the native E. coli acrAB-expressing strain” value was “equivalent tolerance”. B2 was tested, and the “tolerance to 1-hexene relative to the native E. coli acrAB-expressing strain” value was “equivalent tolerance”. For B3, the “tolerance to 1-hexene relative to the native E. coli acrAB-expressing strain” value was “equivalent tolerance”.
